Among the data in the supplement of paper PMC12042874 are amyloid nucleation score values, retold here.

± gives the uncertainty stated by the source.

The nature of this data set: amyloid nucleation score (Sup35N fusion, yeast selection) (log enrichment); library NNK1; higher = more nucleation; inactive = no reads after selection. Summed up:
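Random libraries were run with three technical output replicates. In each, psi-negative yeast expressing Sup35N fused to peptides of 20 random codons were induced 24 hours with 100 μM copper sulfate and grown 7 days at 30°C on medium lacking adenine and uracil, and input and output plasmid inserts were Illumina-sequenced. The nucleation score is the DiMSum log enrichment of output over input reads, centred on the mode score of non-aggregating sequences, and sequences under 100 input reads were excluded.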
DPVVFDSWELLKQWISCKRC: the amyloid nucleation score amounted to 0.226 ± 1.6.

DPYMNWIVLYSGVRHWNGVM gave an amyloid nucleation score of 0.056 ± 1.4.

DQYIGGFGFNYETFVTRNLV displayed an amyloid nucleation score of -0.861 ± 0.49.

In turn, DRCNDAVGRKRRRTKMRGLY gave an amyloid nucleation score of 0.457 ± 0.45.

Regarding DRLWKSTWKGMTRLMRRSAE, the amyloid nucleation score is -0.968 ± 0.48.

On to DRMPRFLVHENVYTVPERVW, for which the amyloid nucleation score result is “inactive”.

DRRMSTTVMGRFVWRDRYVG registered an amyloid nucleation score of 0.526 ± 0.65.

DRTRLVSHHTRIVRRWAHVY showed an amyloid nucleation score of 0.064 ± 0.65.

Regarding DRVANNLMD, the amyloid nucleation score was -0.344 ± 0.26.

DRYIREISNTATCFALLL showed an amyloid nucleation score of 4.29 ± 0.083.

DSLLWVMKYSMVSFYMCDYR: the amyloid nucleation score is -0.668 ± 0.97.

Consider DSQGFMRVISLMFVDGSLLA, for which the amyloid nucleation score turned out to be 0.591 ± 0.54.

For the substance DSRFHSLGVLAHMPRDCNCG, the amyloid nucleation score came out at 0.853 ± 0.86.

Take DSRKSRYGSWVLRWS: the amyloid nucleation score result was “inactive”.

Take DSSLRDKYVTKNVFIFSMSG: the amyloid nucleation score is 4.71 ± 0.063.

For DSTFHMDYY, the amyloid nucleation score was -0.121 ± 0.5.

DSVYRLFICIVISALTGWWK gave an amyloid nucleation score of 0.258 ± 0.62.

Substance DTECRGMKVELHRTHRMGKF came in with an amyloid nucleation score of -0.179 ± 0.62.

In turn, DTLEVTFGYYDCYGMYKTIT yielded an amyloid nucleation score of -1.18 ± 1.7.

The substance DTLLKF gave an amyloid nucleation score of 0.916 ± 0.74.

The substance DTYITGSHCHFYMNCWKA registered an amyloid nucleation score of 8.519 ± 0.079.

DVFRML: the amyloid nucleation score result was “inactive”.

With DVLLCSIRTSSHDMIIMRKR, the amyloid nucleation score came to 0.553 ± 0.65.

On to DVSLNVNLYVHRFMCHQVPI, for which the amyloid nucleation score was 0.515 ± 0.28.

Turning to DVSNTVFFTLLYLLGPRCRS, the amyloid nucleation score is 0.721 ± 0.38.

Turning to DVSVT, the amyloid nucleation score result is “inactive”.

For DVVEYVIWSYTWMNLAHYCR, the amyloid nucleation score is 0.136 ± 0.24.

Regarding DWGKSSPLLKVLLMQSRLPC, the amyloid nucleation score was -0.073 ± 0.45.

DWRMWGF registered an amyloid nucleation score of -0.865 ± 0.69.

Substance DYGIWELSINMSVKYLCWLP gave an amyloid nucleation score of 1.27 ± 0.13.

In the case of DYGKSCRIALYGYYDRWCTG, the amyloid nucleation score stood at 0.797 ± 0.48.

DYKHNPKWKMCKCLLAIRNY: the amyloid nucleation score came out at 1.53 ± 0.51.

Consider DYNWSCFH, for which the amyloid nucleation score turned out to be 1.28 ± 0.69.

Substance DYYVVLDMQQVFEGGCRFFR came in with an amyloid nucleation score of 0.498 ± 0.46.

On to EACNNQNFCRTSNGESSTTV, for which the amyloid nucleation score turned out to be 0.324 ± 0.75.

EAGKLL: the amyloid nucleation score came to 0.309 ± 0.32.

Take EAGNTDSAINGVRAKDGS: the amyloid nucleation score was found to be 1.15 ± 0.69.

EAVRWRGRNVRNLFWDN had an amyloid nucleation score of 0.03 ± 0.35.

In the case of ECGVFQVKTAGIGS, the amyloid nucleation score was -0.425 ± 0.8.

With ECMGGVAIARNFATI, the amyloid nucleation score is -1.11 ± 2.7.

With ECMVYDYNYWVHVYGITYCC, the amyloid nucleation score was 0.242 ± 0.35.

In the case of ECSGVNLNTSYLPGVQEATM, the amyloid nucleation score turned out to be 0.715 ± 0.2.

The substance EDAWGIIEEIIGWRGCGRLA returned an amyloid nucleation score of -0.84 ± 0.74.

In the case of EDDLN, the amyloid nucleation score is 0.271 ± 0.38.

EDFLYMCFRLSFVIIH: the amyloid nucleation score came to 3.42 ± 0.12.

Substance EDWHVDSFGFSKTSMGTRRL gave an amyloid nucleation score of 2.49 ± 0.14.

EEWFETGCENGCNVEGNRSC had an amyloid nucleation score of -0.117 ± 0.57.

Turning to EFAYQV, the amyloid nucleation score was -0.552 ± 1.5.

For EFEWNLFPICNTNMI, the amyloid nucleation score is 1.66 ± 0.8.

Consider EGGSF, for which the amyloid nucleation score worked out at 0.059 ± 0.45.

Substance EGMNLV had an amyloid nucleation score of 0.196 ± 0.63.

As to EGQCSNIVSKLAPSKIPYLR, the amyloid nucleation score is -0.853 ± 0.66.

EGRPECKARLSRYGRCRMNG gave an amyloid nucleation score of 0.447 ± 0.48.

For the substance EGRTWRGSRRGLHLDSPRMC, the amyloid nucleation score was 0.438 ± 0.95.

Take EGVQKDC: the amyloid nucleation score result is “inactive”.

In turn, EGVVMRISWKNTNGHVYEKG yielded an amyloid nucleation score of 2.06 ± 0.23.

As to EIARHSFF, the amyloid nucleation score entry is “inactive”.

On to EIMFDWVMMEKKCRILHKKT, for which the amyloid nucleation score result was “inactive”.

Substance EINESRLYYNSLQAFAFMWA displayed an amyloid nucleation score of -0.823 ± 0.57.

The substance EIQSSRRKITISMPNRSIVV showed an amyloid nucleation score of 0.333 ± 0.25.

For the substance EIRWSHIFERWV, the amyloid nucleation score was determined as 0.628 ± 0.38.

EKFGRRCCSFGRSVSEWVTK returned an amyloid nucleation score of 0.999 ± 0.66.

EKGLEFHLWLRPVLRACVGY returned an amyloid nucleation score of 1.01 ± 1.1.

Consider ELIFFDDHFTDWYLCFNNFG, for which the amyloid nucleation score is -1.29 ± 1.4.

In the case of ELIIRTRLAVEELLMKACFV, the amyloid nucleation score was -0.498 ± 0.39.

For ELSYSYQSGID, the amyloid nucleation score came out at 0.225 ± 0.67.

For the substance ELYPGF, the amyloid nucleation score was -0.219 ± 1.2.

Take EMCFGLFGKLVWCETWLVKA: the amyloid nucleation score is 0.344 ± 0.32.

Substance EMFCC gave an amyloid nucleation score of 0.554 ± 0.59.

The substance EMSRGHLHTSFRVYIQMLGG came in with an amyloid nucleation score of 4.54 ± 0.073.

As to ENDVNDLRSPLDNQYLSRLP, the amyloid nucleation score result is “inactive”.

With ENMGELCA, the amyloid nucleation score entry is “inactive”.

Substance ENRYMELTFQCSARRVG came in with an amyloid nucleation score of 2.81 ± 0.11.

Substance ENVGRTLAYIWMVWLSSQML showed an amyloid nucleation score of 1.87 ± 0.67.

Take EPARK: the amyloid nucleation score entry was “inactive”.

As to EPLLHSG, the amyloid nucleation score entry is “inactive”.

Take EPYDSLGYPNEDLGTGVFWG: the amyloid nucleation score is -1.72 ± 2.7.

EQCHRVFRAL yielded an amyloid nucleation score of 0.362 ± 0.55.

In turn, EQHCNAMGVSRSGPWCDGEV registered an amyloid nucleation score of 0.051 ± 0.85.

EQNCVGVCSELNVFYGACVI showed an amyloid nucleation score of 2.12 ± 0.48.

The substance EQRKRDHSRASSVSLKRYMG yielded an amyloid nucleation score of 0.657 ± 0.53.

For ERENAYPSIMLVCV, the amyloid nucleation score is -0.092 ± 0.32.

In turn, ERFVYALIEFCIETERLHTE gave an amyloid nucleation score of -0.459 ± 0.45.

ERITIFVSVRTGKLRYLWPT showed an amyloid nucleation score of -0.837 ± 2.4.

For the substance ERLYLSRYSMVIFVGLMCKS, the amyloid nucleation score is -0.145 ± 0.61.

ERPAAYATVTTSCKKTWDL: the amyloid nucleation score is 7.769 ± 0.06.

Turning to ERSSAPECNFKYISYTGKS, the amyloid nucleation score was -0.881 ± 0.48.

Consider ERYVLAPYQQTRRGNLQFRY, for which the amyloid nucleation score was determined as 0.615 ± 0.63.

The substance ESAERGVRGSGRGRMNGGMM registered an amyloid nucleation score of -0.778 ± 0.98.

ESIVRFKSSRSDKI displayed an amyloid nucleation score of 2.86 ± 0.075.

In turn, ESSIVVGCRGSGWTQDAASQ yielded an amyloid nucleation score of -0.465 ± 0.29.

On to ESSLLLLDLGELRCYTFCLV, for which the amyloid nucleation score is -0.944 ± 0.94.

Substance ESWAITWVGLYGCTLTVIRN registered an amyloid nucleation score of -0.148 ± 0.47.

In the case of ETRTHWVRLAANNNFH, the amyloid nucleation score came to 0.135 ± 0.88.

EVDRWGICCPYW showed an amyloid nucleation score of 1.88 ± 0.26.

EVHGFNRCGLKSIRVHKVYA yielded an amyloid nucleation score of 0.839 ± 0.62.

Substance EVIRLDSIFLETGVRSCFQY registered an amyloid nucleation score of 0.041 ± 0.73.

As for EVITNTNGIVWSFDELYSVM, the amyloid nucleation score entry is “inactive”.

EVSLVVYTYVF registered an amyloid nucleation score of 0.697 ± 0.69.

EVTDVRLS displayed an amyloid nucleation score of 0.862 ± 0.62.

Consider EVVEWSLTKNCLFHALFIWV, for which the amyloid nucleation score is -0.142 ± 0.3.

In turn, EVYRVTAYVLFYGICQLTLE registered an amyloid nucleation score of -0.53 ± 0.32.

Turning to EWKNGSHMWLQRLGESWNRL, the amyloid nucleation score is -0.413 ± 0.35.

EWVGQFEYEGTTLWVYLVTL: the amyloid nucleation score was -0.419 ± 0.27.

In turn, EWVVWVDCRGRYADNVSGGA gave an amyloid nucleation score of -0.558 ± 0.53.

As for EYSIIYCICH, the amyloid nucleation score turned out to be 3.08 ± 0.14.

Turning to FACMEGSLVM, the amyloid nucleation score result was “inactive”.

FACYLNHAGGVSAHKYIFVT yielded an amyloid nucleation score of 0.351 ± 0.37.

Take FADAASNPNAII: the amyloid nucleation score stood at 0.071 ± 0.4.

Consider FADLK, for which the amyloid nucleation score was -0.88 ± 1.7.

FAEENTSKFFSRKGEVCYMF displayed an amyloid nucleation score of -0.113 ± 0.9.

Turning to FALIR, the amyloid nucleation score stood at 0.81 ± 0.51.

For the substance FATFRMSCPAKTVSVAVIGG, the amyloid nucleation score is -0.069 ± 0.77.

With FAYRL, the amyloid nucleation score is 0.404 ± 0.44.

As to FCCCNRLYQGRELWVKLVNR, the amyloid nucleation score worked out at 4.94 ± 0.06.

Turning to FCEHNVISYNESLRM, the amyloid nucleation score is 0.352 ± 0.53.

In turn, FCGAVVFNVVWCYWNKIAVL gave an amyloid nucleation score of 1.79 ± 0.12.

In turn, FCGDVKLMYWSRFVLMKGHQ yielded an amyloid nucleation score of -1.18 ± 1.1.

With FCICNRKRHNPSPEKKNA, the amyloid nucleation score was -1.36 ± 0.91.

The substance FCLNLQYRSKMMHRANICL returned an amyloid nucleation score of 0.159 ± 0.17.

For FCNLYVEWFLGDNVKVTRYR, the amyloid nucleation score was determined as 3.58 ± 0.095.

The substance FCPDICTWKNWSMWMQLEDL displayed an amyloid nucleation score of 0.89 ± 0.54.

FCSDFKSEYSIWDYWVWHKV: the amyloid nucleation score is -0.306 ± 0.37.

In the case of FCTCSLKQVM, the amyloid nucleation score entry was “inactive”.

FCVTNPWS gave an amyloid nucleation score of 0.308 ± 0.58.

Substance FCVYKAVCIHYPSGFPLTIG displayed an amyloid nucleation score of -0.238 ± 0.31.

In the case of FCWKLGANIDVDECWRWAAD, the amyloid nucleation score turned out to be 1.29 ± 0.63.

FCYFRVFVKSILDDWN showed an amyloid nucleation score of 0.278 ± 0.31.

Substance FCYSTI came in with an amyloid nucleation score of 0.487 ± 0.81.

Regarding FDLFVKGECFVVRPLATSTY, the amyloid nucleation score was -0.66 ± 0.38.

In turn, FDNVVENHSS returned an amyloid nucleation score of -0.074 ± 0.43.

With FDRSWRGFAGPRQRTGLVVF, the amyloid nucleation score is -0.178 ± 0.51.

In the case of FDSFKVRYN, the amyloid nucleation score was -0.724 ± 0.7.

FDSGLETTNIKMRYMVVYLR came in with an amyloid nucleation score of -0.608 ± 0.38.

Turning to FESMVTIILIDPFDVLIGDG, the amyloid nucleation score result is “inactive”.

On to FFAIVGRKVCRGSIHFWSIT, for which the amyloid nucleation score came to 1.23 ± 0.61.

Turning to FFGNLVRWSNGYGDHCYSLN, the amyloid nucleation score stood at 2.51 ± 0.22.

The substance FFICKFL returned an amyloid nucleation score of -0.427 ± 1.9.

FFIKE came in with an amyloid nucleation score of -0.067 ± 0.48.

On to FFLPILGPW, for which the amyloid nucleation score is -0.729 ± 1.7.

Consider FFNAV, for which the amyloid nucleation score was -0.353 ± 0.59.
